Test [1] addresses MHC class I molecule H-2K^d on CT26 target cells (mouse) (UniProt P01902). The test is described as follows: cell-based or functional assay.
The target in test [2] is MHC class I molecule H-2L^d on CT26 target cells (mouse) (UniProt P01897). The test is described as follows: cell-based or functional assay.
Chain of UniProt P01897 (P01897 25-362): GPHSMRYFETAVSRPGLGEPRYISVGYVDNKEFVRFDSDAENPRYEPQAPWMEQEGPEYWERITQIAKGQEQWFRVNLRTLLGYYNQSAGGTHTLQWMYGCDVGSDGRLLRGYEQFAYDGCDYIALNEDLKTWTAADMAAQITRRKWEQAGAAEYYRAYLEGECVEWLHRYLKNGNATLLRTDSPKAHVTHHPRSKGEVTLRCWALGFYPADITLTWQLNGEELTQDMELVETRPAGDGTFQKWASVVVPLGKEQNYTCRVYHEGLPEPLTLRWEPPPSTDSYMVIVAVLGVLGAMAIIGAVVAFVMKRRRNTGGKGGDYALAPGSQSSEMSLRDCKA

Chain of UniProt P01902 (P01902 22-368): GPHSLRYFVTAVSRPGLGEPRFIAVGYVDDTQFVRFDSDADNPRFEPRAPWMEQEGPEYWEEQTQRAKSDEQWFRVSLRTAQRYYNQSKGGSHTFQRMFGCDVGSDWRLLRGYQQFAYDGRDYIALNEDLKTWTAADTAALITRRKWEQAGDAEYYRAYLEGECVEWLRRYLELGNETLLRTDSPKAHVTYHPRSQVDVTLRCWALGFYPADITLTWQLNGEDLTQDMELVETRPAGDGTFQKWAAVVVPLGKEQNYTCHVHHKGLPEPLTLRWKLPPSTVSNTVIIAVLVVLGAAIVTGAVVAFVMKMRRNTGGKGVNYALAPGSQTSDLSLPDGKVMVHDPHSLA

“anti-MHC class I monoclonal antibody H-2K^d: SF1-1.1.1 (eBioScience)” yielded a CTL activity (CFSE-based cytotoxicity assay, CT26 target cells pre-incubated with blocking antibodies) (fraction of the control values) in test [1] of 0.33.
“anti-MHC class I monoclonal antibody H-2L^d: 28-14-8 (BioLegend)” showed a CTL activity (CFSE-based cytotoxicity assay, CT26 target cells pre-incubated with blocking antibodies) (fraction of the control values) in test [2] of 0.33.

(Values after patent US20160058856A1.)
